These results are taken from patent publication US20120196803A1.

For the experiment, the target named is GFRα1 receptor/IgG Fc fusion. Description: double sandwich ELISA, GFRα1/IgG Fc captured on plate. (In general: In an ELISA, binding on a coated surface is turned into a signal by an enzyme label.)

“An2-Flex-hGDNF (N-terminal Angiopep-2 fused to hGDNF^78-211 through a flexible ((GGGGS)2) linker) (from UniProt P39905 78-211)” returned a Bmax of 0.161 A405/min and a Kd of 160 pM.

In the case of “An2-Hel-hGDNF (N-terminal Angiopep-2 fused to hGDNF^78-211 through a helical (A(EAAAK)2A) linker) (from UniProt P39905 78-211)”, the Bmax was determined as 0.142 A405/min and the Kd worked out at 270 pM.

The substance “An2-Rig-hGDNF (N-terminal Angiopep-2 fused to hGDNF^78-211 through a rigid (PAPAP) linker) (from UniProt P39905 78-211)” displayed a Bmax of 0.202 A405/min and a Kd of 820 pM.

For “An2-hGDNF (N-terminal Angiopep-2 fused to hGDNF^78-211) (from UniProt P39905 78-211)”, the Bmax is 0.146 A405/min and the Kd amounted to 680 pM.

For “An2NT-hGDNF (N-terminal reversed sequence Angiopep-2 fused to hGDNF^78-211) (from UniProt P39905 78-211)”, the Bmax is 0.161 A405/min and the Kd was determined as 310 pM.

In turn, “GDNF (hGDNF^78-211) (from UniProt P39905 78-211) (ligand)” yielded a Bmax of 0.155 A405/min and a dissociation constant Kd of 240 pM.

In turn, “hGDNF-An2 (C-terminal Angiopep-2 fused to hGDNF^78-211) (from UniProt P39905 78-211)” displayed a Bmax of 0.155 A405/min and a Kd of 530 pM.

Broadly, the Kd is the equilibrium constant for the complex coming apart. Read a low Kd as a tighter complex.
